Source: publication PMC9900802

Target: LUC^N-MLO2^CT-LW/RR (A. thaliana)
Experiment: split reporter

With “LUC^C-CAM2 (pAMPAT-LUC^C) (from UniProt P0DH97 1-149) (natural protein)” as the substance, how does the luciferase activity (median) read?
Its luciferase activity (median) is 4900 units/mm^2.
